The supplement of paper PMC9170038

System: MS2 coat protein
Assay: apparent KD of MS2 coat protein; designed switch direction (-1 OFF switch, 1 ON switch): 1; higher = weaker reporter binding
Method in brief: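 Designed RNA switches with common flanks were transcribed on Illumina chips by stalled E. coli RNA polymerase and titrated with SNAP-549-labelled MS2 coat protein, from 0.7 or 1.5 nM doubling to 3 µM, in Tris-HCl pH 7.5 buffer with KCl, MgCl2, BSA, DTT, tRNA and Tween-20. Steps lasted 0.8–1.5 h (lowest) to 10–20 min (highest). Titrations ran without input, with 200 uM small-molecule ligand, or with an oligonucleotide input. Normalised cluster fluorescence was curve-fitted, and apparent KD is the per-design median over clusters.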

[1] = Eterna round: R95, input ligand: FMN 200 uM
[2] = Eterna round: R95, input ligand: microRNA oligo, concentration not stated
[3] = Eterna round: R95, input ligand: none
[4] = input ligand: microRNA oligo, concentration not stated

GGUCCAGCCUGAGCUGGACAAAAGCAUGUACAUGAGGAUCACCCAUGUUCAUGUACAAGCUUUUUGCUCGUCUUGCA [salish99_208a_r3_110x] (puzzle: Sensor for hsa-mir-208a)
apparent KD of MS2 coat protein [1]: 639 nM | apparent KD of MS2 coat protein [2]: 15.5 nM | apparent KD of MS2 coat protein [3]: 706 nM

UAAGAACAUGAGGAUCACCCAUGUGGAAAGAACACAGGAUAUCAUAGUAGAACGAGACUAUGAGAAGGGUGACACG [Texeistean] (puzzle: Same State 1)
apparent KD of MS2 coat protein [1]: 595 nM | apparent KD of MS2 coat protein [2]: 214 nM | apparent KD of MS2 coat protein [3]: 666 nM

UGUAUACAUGAGGAUCACCCAUGUCAACGUAGUCGAGGAUAUGGGCAGCCGUGAGGCGUACCAGAAGGCGAAGAGG [JL-ss1-3.05 ViennaUCT mod] (puzzle: Same State 1)
apparent KD of MS2 coat protein [1]: 27.6 nM | apparent KD of MS2 coat protein [2]: 95.3 nM | apparent KD of MS2 coat protein [3]: 172 nM

GGUCCAGCCUGAGCUGGACAAAAGCAUGUACAUGAGGAUCACCCAUGUCAUGUACAAGCUUUUUGCUCGUCUAAAGG [Mat - hsa-mir-208a - 92] (puzzle: Sensor for hsa-mir-208a)
apparent KD of MS2 coat protein [1]: 726 nM | apparent KD of MS2 coat protein [2]: 23.8 nM | apparent KD of MS2 coat protein [3]: 586 nM

AUAAAACAUGAGGAUCACCCAUGUCAACAUAGUCGAGGAUAUGGGCAAAUAAAAUAAGAACCAGAAGGCGAAUAAU [salish99_ss1_r3_040] (puzzle: Same State 1)
apparent KD of MS2 coat protein [1]: 50.5 nM | apparent KD of MS2 coat protein [2]: 714 nM | apparent KD of MS2 coat protein [3]: 510 nM

UUGAAGAAUUAAGGAUAUCGAGUCGUCUAAUUAAACAUGAGGAUCACCCAUGUGGGUUGCGGUAUCGAGAAGGUAAAUUACUAA [JL JR Sub099 mod 1] (Eterna round: R96, puzzle: Same State NG 2)
apparent KD of MS2 coat protein (input ligand: FMN 200 uM): 14.3 nM | apparent KD of MS2 coat protein [4]: 20.6 nM | apparent KD of MS2 coat protein (input ligand: none): 32.2 nM

CAAACUUAGUAGGGUAGGUACCCAGGACGACAUGAGGAUCACCCAUGUAAGAGCUUUUUGCUCGUCGUCAACAGUUG [JR_SHM208a_Sub019] (puzzle: Sensor for hsa-mir-208a)
apparent KD of MS2 coat protein [1]: 19.8 nM | apparent KD of MS2 coat protein [2]: 22.5 nM | apparent KD of MS2 coat protein [3]: 19.8 nM

UUUAAACAUGAGGAUCACCCAUGUUUUUUUAUGGGAGGAUAUCUAAGUUAAUUAUAUUAAGGAGAAGGCCUAUUUU (Eterna round: R96, puzzle: Same State 1)
apparent KD of MS2 coat protein (input ligand: FMN 200 uM): 28.1 nM | apparent KD of MS2 coat protein [4]: 136 nM | apparent KD of MS2 coat protein (input ligand: none): 145 nM

AACAAUCUAUCUGAGGAUAUCAUGAAAUAAACAUGAGGAUCACCCAUGUGCAGGAUAACUGCAUAUGAGAAGGCAGAUAGAUUGA [salish99_ss2_r3_041] (puzzle: Same State 2)
apparent KD of MS2 coat protein [1]: 57.3 nM | apparent KD of MS2 coat protein [2]: 661 nM | apparent KD of MS2 coat protein [3]: 656 nM

AGUCCAGCGAAAGCUGGACAAAAGCAUGUACAUGAGGAUCACCCAUGUUCAUGUACAAGCUUUUUGCUCGUCUUAAA [Mat - Sensor - JL mod - D95] (Eterna round: R96, puzzle: Sensor for hsa-mir-208a)
apparent KD of MS2 coat protein (input ligand: FMN 200 uM): 485 nM | apparent KD of MS2 coat protein [4]: 14.1 nM | apparent KD of MS2 coat protein (input ligand: none): 467 nM

UGGUAACAUGAGGAUCACCCAUGUCAAAUGAAUCGAGGAUAUGGGAAUUAACAACACAAACUAGAAGGCGAAUUUG [Altered State 1-8 - Jieux - Same State 1] (Eterna round: R96, puzzle: Same State 1)
apparent KD of MS2 coat protein (input ligand: FMN 200 uM): 316 nM | apparent KD of MS2 coat protein [4]: 151 nM | apparent KD of MS2 coat protein (input ligand: none): 314 nM

GGGCCAGCCUGUGCUGGGCCUUAGCAUGCACAUGAGGAUCACCCAUGUCGUGUACAUGCUUUUUGCUCGUCUUUAAA [Photon Torp-09] (puzzle: Sensor for hsa-mir-208a)
apparent KD of MS2 coat protein [1]: 79.2 nM | apparent KD of MS2 coat protein [2]: 15.6 nM | apparent KD of MS2 coat protein [3]: 93.2 nM

AGUCCAGCCUGAGCUGGACAAAAGCAUGUACAUGAGGAUCACCCAUGUCAUGUACAAGCUUUUUGUUCGUCUUAAAA [Zipper 46 - 12] (puzzle: Sensor for hsa-mir-208a)
apparent KD of MS2 coat protein [1]: 794 nM | apparent KD of MS2 coat protein [2]: 14.8 nM | apparent KD of MS2 coat protein [3]: 500 nM

CAUACGCGGAGAGGAUAUCGCAGGGUAACGGUAAGUGCCCGAUGACAUGAGGAUCACCCAUGUAUCGAGAAGGCUCCUCACCCU [Eternabot solution 22] (Eterna round: R96, puzzle: Same State NG 2)
apparent KD of MS2 coat protein (input ligand: FMN 200 uM): 10.6 nM | apparent KD of MS2 coat protein [4]: 7.9 nM | apparent KD of MS2 coat protein (input ligand: none): 15.1 nM

CCGUUGAUGGGACAGGAUAUGACUGUCGUCACAUGAGGAUCACCCAUGUCCCGGCAAUGCCACCGUUAGAAGGGUCCCGUCUCGG [Edraedbibe] (puzzle: Same State 2)
apparent KD of MS2 coat protein [2]: 12 nM

UAGUACAUGCUUUUUGCCCGUCUUAGAUAACAUGAGGAUCACCCAUGUAAGGUGAAAGUUAUAUAGUGGAGGAAGAU [JR_SHM208A_Sub055] (puzzle: Sensor for hsa-mir-208a)
apparent KD of MS2 coat protein [1]: 107 nM | apparent KD of MS2 coat protein [2]: 360 nM | apparent KD of MS2 coat protein [3]: 107 nM
